Here are results for 4 molecules from US20190185532A1 (UNIVERSITY OF BIRMINGHAM, published 2019).

In assay [1] the target is T1, MMRN2^FL (full-length human MMRN2 with a polyhistidine (His) tag) (human, UniProt Q9H8L6 23-949).
T1 construct: mature; Used as lysate of transfected HEK293T cells; Forms large multimers under non-reduced conditions; also called MMRN2 full-length; MMRN2 FL with His tag; not shown: C-terminal BirA and His tags of vector pHL-Avitag3
T1 sequence (looked up): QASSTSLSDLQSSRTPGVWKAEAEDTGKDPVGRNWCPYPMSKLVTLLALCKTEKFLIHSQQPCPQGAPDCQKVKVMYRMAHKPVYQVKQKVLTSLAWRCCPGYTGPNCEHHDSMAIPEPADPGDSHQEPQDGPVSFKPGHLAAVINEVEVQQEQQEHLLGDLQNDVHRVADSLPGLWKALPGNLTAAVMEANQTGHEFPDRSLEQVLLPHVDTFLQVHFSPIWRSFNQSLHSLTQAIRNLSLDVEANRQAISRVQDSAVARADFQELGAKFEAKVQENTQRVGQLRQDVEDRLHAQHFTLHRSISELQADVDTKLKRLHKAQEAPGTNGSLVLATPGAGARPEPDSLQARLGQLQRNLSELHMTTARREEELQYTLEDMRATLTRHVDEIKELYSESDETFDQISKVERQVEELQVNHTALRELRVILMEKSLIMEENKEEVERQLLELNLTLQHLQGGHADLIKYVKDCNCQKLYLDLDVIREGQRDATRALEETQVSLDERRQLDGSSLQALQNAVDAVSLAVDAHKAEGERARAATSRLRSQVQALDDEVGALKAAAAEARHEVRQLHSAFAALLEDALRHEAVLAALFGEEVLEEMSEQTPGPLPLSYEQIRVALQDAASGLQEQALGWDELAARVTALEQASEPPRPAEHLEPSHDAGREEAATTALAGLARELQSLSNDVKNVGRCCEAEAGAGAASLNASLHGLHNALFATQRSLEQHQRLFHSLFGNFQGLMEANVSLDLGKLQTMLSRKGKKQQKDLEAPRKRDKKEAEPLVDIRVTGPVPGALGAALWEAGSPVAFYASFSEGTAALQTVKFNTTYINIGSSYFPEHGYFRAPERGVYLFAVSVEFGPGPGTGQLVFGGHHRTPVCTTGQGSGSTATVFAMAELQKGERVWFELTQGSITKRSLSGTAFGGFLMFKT
Kind of assay: far western blot, non-reduced; HEK293T lysates of GFP-tagged proteins probed with MMRN2^FL-His lysate, anti-His detection. From the text:
We previously identified MMRN2 as a binding partner of CLEC14A, one of the members of the C-type lectin domain (CTLD) group 14 family (4). To test whether any of the other CTLD group 14 family members also bind to MMRN2, we employed far western blotting using MMRN2 protein probe as a surrogate for a primary antibody in a standard western blot set up. The CTLD group 14 family members CLEC14A, CD93 and thrombomodulin were all constructed with a C-terminal green fluorescent protein (GFP) tag (FIG. 1A). Constructs were transfected into HEK293T cells and lysates were separated by SDS-PAGE under non-reducing conditions to keep disulphide bonds intact, then transferred to PVDF membranes and blotted using HEK293T lysates overexpressing full-length human MMRN2 with a polyhistidine (His) tag. MMRN2 protein binding was detected by staining with an anti-His tag antibody.
Whole cell protein lysates were made by incubating with lysis buffer (1% (v/v) NP40, 10 mM Tris pH7.5, 150 mM NaCl and 1 mM EDTA) and pelleting insoluble material. Standard protocols for western blotting were used. […] The epitope tag of each probed protein was detected with secondary antibody incubation (anti-His or anti-Fc HRP conjugate) and then tertiary anti-mouse HRP for the case of anti-His.

Assay [2] has as its target T2, mouse CLEC14A-ECD-Fc (murine CLEC14A-ECD fused to a human Fc tag) (mouse; human, UniProt Q8VCP9 22-386).
T2 construct: extracellular domain; not shown: human Fc tag
T2 sequence (looked up): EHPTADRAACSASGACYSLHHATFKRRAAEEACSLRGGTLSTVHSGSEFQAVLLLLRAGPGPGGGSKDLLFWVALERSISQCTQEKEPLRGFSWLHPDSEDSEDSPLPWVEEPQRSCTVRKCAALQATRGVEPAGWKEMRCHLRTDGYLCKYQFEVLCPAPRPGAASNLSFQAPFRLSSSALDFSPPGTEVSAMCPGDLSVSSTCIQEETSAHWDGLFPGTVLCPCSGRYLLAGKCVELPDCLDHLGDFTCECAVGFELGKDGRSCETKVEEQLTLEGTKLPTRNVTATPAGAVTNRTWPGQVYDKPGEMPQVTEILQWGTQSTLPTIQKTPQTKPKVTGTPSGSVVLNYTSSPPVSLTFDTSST
The experiment in a line: far western blot, reduced and non-reduced.

In assay [3] the target is T3, CLEC14A-ECD-Fc (human CLEC14A extracellular domain fused to an Fc tag) (human, UniProt Q86T13 22-396).
T3 construct: Expressed in HEK293T cells; also called hCLEC14A-ECD-Fc; C14A-Fc; not shown: human IgG Fc tag
T3 sequence: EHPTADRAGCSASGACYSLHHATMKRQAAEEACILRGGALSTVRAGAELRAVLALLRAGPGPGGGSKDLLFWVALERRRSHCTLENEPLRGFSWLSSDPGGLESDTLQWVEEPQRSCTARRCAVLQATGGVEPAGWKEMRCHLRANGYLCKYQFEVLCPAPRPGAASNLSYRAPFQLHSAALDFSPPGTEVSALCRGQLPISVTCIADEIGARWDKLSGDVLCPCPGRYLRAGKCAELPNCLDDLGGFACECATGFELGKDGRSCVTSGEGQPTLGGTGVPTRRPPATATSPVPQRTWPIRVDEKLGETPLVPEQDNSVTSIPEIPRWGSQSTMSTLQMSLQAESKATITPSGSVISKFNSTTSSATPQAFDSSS
The experiment in a line: far western blot; HEK293T lysates probed with CLEC14A-ECD-Fc. From the text:
FIG. 2. […] (A) Diagrams of MMRN2 truncation mutants, showing the elastin microfibril interface (EMI) domain, coiled-coil (CC) domain and complement related C1q domain. The minimal CLEC14A binding fragment is highlighted in black. (B,C) HEK293T were transfected with truncation mutants. Lysates were far western blotted under reduced conditions with CLEC14A extracellular domain fused to an Fc tag (CLEC14A-ECD-Fc) and western blotted by use of His tag antibodies. (B) The smallest binding fragment was identified as MMRN2⁴⁸⁷⁻⁸²⁰, MMRN2^FL fails to bind CLEC14A-ECD-Fc. (C) The smallest MMRN2 fragment binding CLEC14A is MMRN2⁵³⁰⁻⁶²⁴. (D) MMRN2⁴⁹⁵⁻⁶⁷⁴ and MMRN2⁴⁹⁵⁻⁶⁰³ bind to streptavidin under reducing conditions after biotinylation. (E) Flow cytometry histograms of HEK293T transfected with GFP tagged CTLD group 14 family members and stained with biotinylated MMRN2⁴⁹⁵⁻⁶⁷⁴ (grey line), confirming binding to CLEC14A and CD93 but not thrombomodulin. Streptavidin-PE was used as a control for background binding (grey shaded).
Whole cell protein lysates were made by incubating with lysis buffer (1% (v/v) NP40, 10 mM Tris pH7.5, 150 mM NaCl and 1 mM EDTA) and pelleting insoluble material. […] The epitope tag of each probed protein was detected with secondary antibody incubation (anti-His or anti-Fc HRP conjugate) and then tertiary anti-mouse HRP for the case of anti-His.

The target in assay [4] is T2, mouse CLEC14A-ECD-Fc (murine …). The experiment in a line: far western blot; HEK293T lysate probed with mouse CLEC14A-ECD-Fc.

B1: CD93 (human, wild type, C-terminal GFP tag, expressed in HEK293T) (receptor)
chain: TGADTEAVVCVGTACYTAHSGKLSAAEAQNHCNQNGGNLATVKSKEEAQHVQRVLAQLLRREAALTARMSKFWIGLQREKGKCLDPSLPLKGFSWVGGGEDTPYSNWHKELRNSCISKRCVSLLLDLSQPLLPSRLPKWSEGPCGSPGSPGSNIEGFVCKFSFKGMCRPLALGGPGQVTYTTPFQTTSSSLEAVPFASAANVACGEGDKDETQSHYFLCKEKAPDVFDWGSSGPLCVSPKYGCNFNNGGCHQDCFEGGDGSFLCGCRPGFRLLDDLVTCASRNPCSSSPCRGGATCVLGPHGKNYTCRCPQGYQLDSSQLDCVDVDECQDSPCAQECVNTPGGFRCECWVGYEPGGPGEGACQDVDECALGRSPCAQGCTNTDGSFHCSCEEGYVLAGEDGTQCQDVDECVGPGGPLCDSLCFNTQGSFHCGCLPGWVLAPNGVSCTMGPVSLGPPSGPPDEEDKGEKEGSTVPRAATASPTRGPEGTPKATPTTSRPSLSSDAPITSAPLKMLAPSGSPGVWREPSIHHATAASGPQEPAGGDSSVATQNNDGTDGQKLLLFYILGTVVAILLLLALALGLLVYRKRRAKREEKKEKKPQNAADSYSWVPERAESRAMENQYSPTPGTDC
notes: On cells in flow cytometry; as non-reduced HEK293T lysate in far western blots; also called CD93 wild type (wt); cell surface expressed CD93; not shown: C-terminal green fluorescent protein (GFP) tag from vector pEGFP-N1
As to B1, in assay [1], the binding result is reported as “binds”.

B2: CLEC14A (human, wild type, C-terminal GFP tag, expressed in HEK293T) (receptor)
chain: EHPTADRAGCSASGACYSLHHATMKRQAAEEACILRGGALSTVRAGAELRAVLALLRAGPGPGGGSKDLLFWVALERRRSHCTLENEPLRGFSWLSSDPGGLESDTLQWVEEPQRSCTARRCAVLQATGGVEPAGWKEMRCHLRANGYLCKYQFEVLCPAPRPGAASNLSYRAPFQLHSAALDFSPPGTEVSALCRGQLPISVTCIADEIGARWDKLSGDVLCPCPGRYLRAGKCAELPNCLDDLGGFACECATGFELGKDGRSCVTSGEGQPTLGGTGVPTRRPPATATSPVPQRTWPIRVDEKLGETPLVPEQDNSVTSIPEIPRWGSQSTMSTLQMSLQAESKATITPSGSVISKFNSTTSSATPQAFDSSSAVVFIFVSTAVVVLVILTMTVLGLVKLCFHESPSSQPRKESMGPPGLESDPEPAALGSSSAHCTNNGVKVGDCDLRDRAEGALLAESPLGSSDA
notes: On cells in flow cytometry; as non-reduced HEK293T lysate in far western blots; also called CLEC14A wt; cell surface expressed CLEC14A; not shown: C-terminal green fluorescent protein (GFP) tag from vector pEGFP-N1
As to B2, the binding result in assay [1] is listed as “binds”.

B3: MMRN2^495-674 (human, expressed in HEK293T, His tag) (ligand)
chain: QKLYLDLDVIREGQRDATRALEETQVSLDERRQLDGSSLQALQNAVDAVSLAVDAHKAEGERARAATSRLRSQVQALDDEVGALKAAAAEARHEVRQLHSAFAALLEDALRHEAVLAALFGEEVLEEMSEQTPGPLPLSYEQIRVALQDAASGLQEQALGWDELAARVTALEQASEPPRP
notes: not shown: C-terminal BirA and His tags of vector pHL-Avitag3
For the molecule B3, the binding result in assay [2] and in assay [3] was “binds” each time.

B4: mouse MMRN2^495-678 (expressed in HEK293T, His tag) (ligand)
chain: QRVNSDVDVAPEGHRDVMHTLEETQVSLDEQHQLDGSSLQALQSTVDAMSSAMDAYRGEGERARAERARIRSQLRALDHAVEALKTAANGTRKEIRLLHGSFTALLEDALRHQAVLAALFGEEMIDEMSEEAPRPLPLDYEQIRLALQDAASGLQEQAIGWEDLATRVEALEKAAGGFVEQHPQ
notes: as for B3
In the case of B4, the binding result in assay [4] is given as “binds”.
